Measured values reported in patent US12662542B2, “Agnostic anti-mullerian hormone receptor binding peptides” (OVARES D LLC, priority 2019, dated 2026).
Square brackets hold non-standard residues; d marks the D form. Ends that are not written are not given here.

T1: AMH-R2 (Homo sapiens, UniProt Q16671)
T1 construct: GST
T1 sequence (Q16671 18-573): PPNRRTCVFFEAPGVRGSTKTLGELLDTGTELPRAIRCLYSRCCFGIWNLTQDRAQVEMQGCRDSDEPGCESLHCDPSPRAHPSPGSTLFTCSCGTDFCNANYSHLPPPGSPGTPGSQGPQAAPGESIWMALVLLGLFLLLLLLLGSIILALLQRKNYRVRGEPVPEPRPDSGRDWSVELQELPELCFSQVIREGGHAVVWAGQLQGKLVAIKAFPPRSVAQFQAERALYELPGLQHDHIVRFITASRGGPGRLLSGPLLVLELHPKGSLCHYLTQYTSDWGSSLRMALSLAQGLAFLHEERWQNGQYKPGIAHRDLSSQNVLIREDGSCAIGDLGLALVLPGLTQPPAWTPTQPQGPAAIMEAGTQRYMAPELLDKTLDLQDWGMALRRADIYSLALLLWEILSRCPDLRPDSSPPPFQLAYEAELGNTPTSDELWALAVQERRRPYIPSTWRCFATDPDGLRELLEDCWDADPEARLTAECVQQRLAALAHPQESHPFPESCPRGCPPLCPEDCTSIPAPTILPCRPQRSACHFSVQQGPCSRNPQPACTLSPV

B1: rAMH: recombinant Anti-Müllerian hormone (rAMH), comparator in the mouse study (protein, UniProt P03971 452-560, looked up)
Muellerian-inhibiting factor: SAGATAADGPCALRELSVDLRAERSVLIPETYQANNCQGVCGWPQSDRNPRYGNHVVLLLKMQVRGAALARPPCCVPTAYAGKLLISLSEERISAHHVPNMVATECGCR

What was measured:
AMH-R2 = target: T1, AMH-R2; experiment: peptide microarray assay identifying AMH receptor binding peptides; settings: microarray signal
Excerpt: In view of the several actions of AMH, and because of the need for AMH receptor agonists and/or antagonist that can modify the activity of one or more of the AMH receptors, provided herein are AMH receptor binding peptides that modulate the activity of the AMH receptor, as described herein. Briefly, it was hypothesized that peptides that bind AMH receptors could be generated based on the amino acid sequence of the AMH biding site of the AMH-R2 receptor. More particularly, based on the amino acid sequence of the AMH-R2 that is responsible for binding AMH, as well as the amino acid sequences of AMH-R2 that are near the AMH binding site, a peptide microarray was used to identify candidate AMH receptor binding peptides that can activate AMH-R2 and thus produce similar effects to native AMH.
To identify candidate AMH receptor binding peptides described herein, a custom peptide library composed of replicate copies of a 124,000 17 mer peptide microarray was synthesized (Arizona State University, Tempe, AZ) using the method described in Legutki, J. B., et al., Scalable high-density peptide arrays for comprehensive health monitoring. Nat Commun., volume 5, 4785 (2014). The slide was assembled into an Arrayit 4×24 Hybridization Cassette and each peptide microarray was blocked with 150 uL of 30% human sera in 1×PBST for 1 hour at room temperature with shaking After blocking, the slide was washed 3× with 1×PBST using a Biotek plate washer prior to addition of protein targets. Each protein sample was diluted in 30% human sera in 1×PBST and 150 uL of each sample was dispensed into the appropriate wells in the cassette and incubated for 1 hour at 37 C with rotation at 300 rpm on a ThermoMix™ 500 heater/shaker.
After incubation, the cassette was dismantled, the slide washed 3 times in 1×PBST, rinsed three times with distilled, deionized water (ddH2O), and dried in a centrifuge for 2 minutes at 800 rpm. Secondary antibody (anti-GST, GE Healthcare™) was prepared at 10 nM in 30% human sera in 1×PBST and dispensed onto the slide. The slide was incubated for 1 hour at 37 C with rotation at 300 rpm as before. The slide was then washed 3 times in 1×PBST, rinsed 3 times with ddH2O, and dried in a centrifuge for 2 minutes at 800 rpm. Detection antibody, 10 nM Alexa Flour 647 donkey anti-goat IgG (H+L) (ThermoFisher Scientific™), was prepared in 0.75% casein in 1×PBST and dispensed onto the slide. The slide was covered and incubated for 1 hour at 37 C with rotation as before. The slide was washed 3 times in 1×PBST, rinsed 3 times with ddH2O, and dried in a centrifuge for 2 minutes at 800 rpm. The slide was scanned on an Innopsys™ Inoscan 910AL scanner and the resulting TIFF files were analyzed using the Genepix™ Pro 6.0 software. Data files were exported and analyzed using Microsoft Excel™ and JMP™ software.

[1] = test system: A2780 (endometroid ovarian cancer) cells; experiment: MTT cell proliferation assay; type: cell-based; settings: 5, 10 and 20 μg/ml, 24 hours, vs untreated control
Experimental: (§1) This example describes the effect of the AMH receptor binding peptides from Example 1 on cellular proliferation, in accordance with certain example embodiments. Briefly, the first two AMH receptor binding peptides (SEQ ID NOS:1-2) from Table 1 were tested on four types of AMHR2-expressing, immortalized, chemotherapy-resistant ovarian cancer cells: SKOV-3 (ovarian serous cystadenocarcinoma), EL-1 (epithelial ovarian cancer), A2780 (endometroid ovarian cancer), and MDAH (endometroid ovarian cancer) in an MTT Assay (Trevigen™ MTT Cell Proliferation Assay).
(§2) For each cell line, cells were seeded into Falcon tissue culture treated 96-well plates in a fixed volume of 100 mcl at a density of 8,000 cells/well. […] Each experiment was executed in triplicates. For 3+1 treatments×3 wells+10 extra=22 wells×8000 cells per well, the total number of cells needed per AMH receptor binding peptide/cell line was 176,000. The cells were spun down in a sterile 15 ml conical tube for 5 minutes at 200×g and then resuspended in 2.2 ml of media (100 ul per well×22 wells). 100 mcl of the cell-containing fluid (=8,000 cells) were placed in each well of the 96-well plate. After 24 hours the media was removed from each well and replaced with the 4 treatment media (phenol-free media). At this point, 10 extra wells with media, but no cells, were created per each cell line (10×4=40 wells). The AMH receptor binding peptides (AMHR2BP (SEQ ID NO: 1) or AMHR2BP2 (SEQ ID NO: 2)) were administered in the culture medium and the effects analyzed after 24 hours in culture as percentage reduction of cell replication using an MTT […] assay.

[2] = test system: EL-1 (epithelial ovarian cancer) cells; experiment: MTT cell proliferation assay; type: cell-based; settings: 5, 10 and 20 μg/ml, 24 hours, vs untreated control
Experimental: as §1, §2

[3] = test system: MDAH (endometroid ovarian cancer) cells; experiment: MTT cell proliferation assay; type: cell-based; settings: 5, 10 and 20 μg/ml, 24 hours, vs untreated control
Experimental: as §1, §2

[4] = test system: SKOV-3 (ovarian serous cystadenocarcinoma) cells; experiment: MTT cell proliferation assay; type: cell-based; settings: 5, 10 and 20 μg/ml, 24 hours, vs untreated control
Experimental: as §1, §2

[5] = test system: ovarian follicles of C57BL/6J female mice; experiment: in vivo mouse ovary histology, follicle count and cell proliferation
Excerpt: Knowledge of the developmental landmarks and the highly inbred conformity made C57BL/6J female mice a natural choice for this study. In this mouse strain, puberty is characterized by vaginal opening at approximately 25 days of life, estrus 3-4 days later, and subsequently by regular cycling every 5-6 days. Maturity is considered to be reached at 90 days of life (12 weeks).
Briefly, 24 C57BL mature female mice (18 weeks old) were allocated to four (4) experimental groups: baseline group (6 mice), AMHR2BP (SEQ ID NO: 1) group (6 mice), a recombinant rAMH group (6 mice), and control group (6 mice; 21 weeks of age, that received saline). The six mice in the baseline group were euthanized at the beginning of the experiment and comprised the baseline against which to compare the 2 experimental, and the control, groups. Mice in the AMHR2BP (SEQ ID NO: 1) group received AMHR2BP (SEQ ID NO: 1) at a daily dose of 50 μg/day (BP group); the rAMH group received recombinant AMH (rAMH) at a daily dose of 1.8 μg/day (to obtain 24.0 ng/ml serum level), and the control group received normal saline.
In order to accomplish this task, an osmotic pump was implanted intraperitoneally at time zero. […] The osmotic pump (ALZET Osmotic Pumps, model 1004, Cupertino, CA) administered AMHR2BP (SEQ ID NO: 1) and rAMH with a flow rate (QT) of 0.11 μl/h for 4 weeks, based on a mouse temperature of 36.9° C. and a tissue osmolality of 7.5 atm. The daily AMHR2BP (SEQ ID NO: 1) dose was chosen based on the results of Example 3 (above) and estimated in vitro to in vivo extrapolation (IVIVE), while the rAMH dose was determined as described in reference. Mice in the control group were treated with normal saline by using the same osmotic pump vehicle implanted intraperitoneally. All mice in the 2 experimental, and the control, groups were euthanized 3 weeks into the experiment. All mice underwent a blood draw just prior to euthanasia, and their ovaries were explanted for real-time RT-PCR and histological analyses.
After dissection, one ovary was stored in formalin and embedded in paraffin for immunohistochemical examination of follicular development and count with hematoxylin and eosin staining, while Ki67 slides were used for examination of cell proliferation. The other ovary was frozen for mRNA analysis (see below). Five μm-thick sections were serially cut and every 5th section analyzed for follicular counts. All ovarian cortex specimens where obtained from each group, and at least three sections were analyzed in each tissue specimen. The computerized program used for image analysis, CaseCenter™ by 3DHistech Pathology Information System™ (Version 2.3; Budapest, Hungary), allowed us to examine all the sections at the same time and to accurately count all the follicles in each section without redundancy. For follicle counting, the investigators were blinded to the treatment groups. One oocyte surrounded by a monolayer of flat, or cubic, granulosa cells enclosed by a basement membrane identified a primordial (PDF) and a primary follicle (PRF), respectively. Secondary follicles (SEF) were identified with one oocyte surrounded by multiple layers of cubic granulosa cells, and tertiary follicles (TEF) by fluid accumulation amid the granulosa cells.

luteinized GCs = settings: rAMH group; cited from earlier work
[6] = mouse ovarian cortex, 3 weeks, i.p. osmotic pump, AMHR2BP 50 μg/day, rAMH 1.8 μg/day

Molecule | Average (AMH-R2; average of Rep 1 and Rep 2) | Rep 1 (AMH-R2; replicate 1) | Rep 2 (AMH-R2; replicate 2) | cell proliferation [1] | cell proliferation [2] | cell proliferation [3] | cell proliferation [4] | PDFs compared with the control (placebo) group ([5]; control group 21 weeks' age) | PRFs compared with the control (placebo) group ([5]; control group 21 weeks' age) | SEFs compared with the control (placebo) group ([5]; control group 21 weeks' age) | TEFs compared with the control (placebo) group ([5]; control group 21 weeks' age) | Corp. Lutea/mm^3 Median [5, 6] | PDF/mm^3 Median [5, 6] | PRF/mm^3 Median [5, 6] | SEF/mm^3 Median [5, 6] | TEF/mm^3 Median [5, 6] | reduction of Ki67 and Caspase3 (luteinized GCs)
NGSSlQAVNrlSGVS (NGSS[dL]QAVN[dR][dL]SGVS) [SEQ ID NO: 2] | 65535 | 65535 | 65535 | reduced cellular proliferation | reduced cellular proliferation | reduced cellular proliferation | reduced cellular proliferation | – | – | – | – | – | – | – | – | – | –
B1 | – | – | – | – | – | – | – | maintained | low | lower | lower | 7.5 /mm^3 | 1182 /mm^3 | 514 /mm^3 | 1144 /mm^3 | 871 /mm^3 | greater than 30%
